# Measured values: paper PMC7139201 (Developmental cell, 2020)
# T1: Vps4^E233Q-3xHA (ATP hydrolysis deficient substrate trap mutant) (S. japonicus, UniProt B6K5C2 1-436, E233Q)
# T1 sequence (looked up): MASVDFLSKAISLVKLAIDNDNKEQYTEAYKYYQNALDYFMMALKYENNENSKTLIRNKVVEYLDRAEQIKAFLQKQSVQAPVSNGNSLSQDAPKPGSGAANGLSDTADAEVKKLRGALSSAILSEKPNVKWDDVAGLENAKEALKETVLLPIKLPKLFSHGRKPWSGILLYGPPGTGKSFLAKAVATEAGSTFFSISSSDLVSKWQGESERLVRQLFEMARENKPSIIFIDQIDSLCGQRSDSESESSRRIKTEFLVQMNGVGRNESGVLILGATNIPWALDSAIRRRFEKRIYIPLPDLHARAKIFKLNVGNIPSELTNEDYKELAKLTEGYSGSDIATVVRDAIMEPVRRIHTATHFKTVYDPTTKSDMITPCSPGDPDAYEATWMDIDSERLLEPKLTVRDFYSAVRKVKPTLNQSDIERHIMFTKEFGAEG
# Molecular target: T1, Vps4^E233Q-3xHA (ATP hydrolysis …)
# Experiment: pull-down
binder,measurement,value
"GST-Did4 (natural protein, S. japonicus, UniProt B6K6Y8 1-208, looked up) MGMFDWIFGKQRSPAEVMRAHQRQLNRAERELDREQLKLDQREKGLIREIKANAKAGNVGAARVQARDLMRLRNSRKRMQNTKTQLQAIGLRLTTVRSSDQMMSSMRSATTLLTRMNRSANLPALTRITQQFERENDMMEQRQDMIDEQFEEGLEDEDEEEADELVDQVLDEIGVSLSQDLPSAAQANTTKADTISSGLNLEDLAHIR",binding result,binds
